Data taken from patent US20190269784A1, “Selective Inhibitors of the Polo-Like Kinase 1 Polo-Box Domain” (UNIVERSITY OF SOUTH CAROLINA, priority 2018, published 2019).
Square brackets hold non-standard residues; d marks the D form. Ends that are not written are not given here. Peptide text beside a SMILES is read from it. * marks the point of attachment. Benzoyl(4-octyl) = CCCCCCCCc1ccc(C(=O)*)cc1; pT = C[C@@H](OP(=O)(O)O)[C@H](N)C(=O)O; X1 = CCCCCCCCCc1ccc(C(=O)*)cc1

Assays:
[1] = system: BubR1 phosphorylation in PC-3 cells; experiment: Immunoblotting for BubR1 phosphorylation and pHH3 in PC-3 cells; format: cell-based; conditions: 5-30 μM, 23 hours
Protocol: To measure the PLK1 inhibitory activity of the FLIPs in cells, phosphorylation of the mitotic protein BubR1 was measured. PC-3 cells were serum starved for 72 h and released from the G1-S boundary. 16 h after released, cells were arrested at prometaphase by treatment with 100 ng/ml Colcemid or treated with 50 nM BI2536 PLK1 kinase inhibitor or 5-30 μM of Compound No. 18 for 23 hours. Cells were trypsinized and whole cell lysate was prepared. The obtained total cell lysate was subjected to immunoblotting with anti-BubR1 (top panel, FIG. 9), anti-β tubulin (middle panel, FIG. 9), and anti-pHH3 (bottom panel, FIG. 9).

[2] = system: A549 cells; experiment: MTT cell viability assay, A549; format: cell-based; conditions: A549, Kras mutant lung cancer, no delivery agent
Protocol: (§1) Accordingly, cell viability was measured using an MTT assay to determine the anti-proliferative activity for Compounds No. 15, 16, 17, and 18 with regard to three different cell types (HeLa, PC-3, and A549). The cells utilized were chosen due to reported synthetic lethal interactions with PLK1 inhibition

[3] = system: RPE cells expressing PLK1 C67V mutant; format: cell-based; conditions: for sensitivity of RPE cells to FLIPs, in words: FIG. 8
[4] = system: HeLa cells; experiment: MTT cell viability assay, HeLa; format: cell-based; conditions: no delivery agent
Protocol: as §1

[5] = system: PC-3 cells; experiment: MTT cell viability assay, PC-3; format: cell-based; conditions: PC-3, PTEN deficient prostate cancer, no delivery agent
Protocol: as §1

[6] = target: polo-box domain (PBD) of polo-like kinase 1 (PLK1) (UniProt P53350); experiment: from FP IC50s, (IC50 PLK3 PBD/IC50 PLK1 PBD)x5; PLK1 PBD against PLK3 PBD
[7] = target: polo-box domain (PBD) of polo-like kinase 1 (PLK1) (UniProt P53350); experiment: fluorescence polarization competition on PLK1 PBD
[8] = target: polo-box domain (PBD) of polo-like kinase 3 (PLK3) (UniProt Q9H4B4); experiment: fluorescence polarization competition on PLK3 PBD
[9] = system: RPE cells expressing wild-type PLK1; format: cell-based; conditions: read-out: growth inhibition, RPE cells expressing wild-type PLK1
[10] = target: T1, PLK3 PBD (Homo sapiens, UniProt Q9H4B4); experiment: Fluorescence polarization competitive binding assay, PLK3 PBD
T1 construct: A similar assay format was developed for the PLK3 PBD
T1 sequence (Q9H4B4 335-646 limits assumed): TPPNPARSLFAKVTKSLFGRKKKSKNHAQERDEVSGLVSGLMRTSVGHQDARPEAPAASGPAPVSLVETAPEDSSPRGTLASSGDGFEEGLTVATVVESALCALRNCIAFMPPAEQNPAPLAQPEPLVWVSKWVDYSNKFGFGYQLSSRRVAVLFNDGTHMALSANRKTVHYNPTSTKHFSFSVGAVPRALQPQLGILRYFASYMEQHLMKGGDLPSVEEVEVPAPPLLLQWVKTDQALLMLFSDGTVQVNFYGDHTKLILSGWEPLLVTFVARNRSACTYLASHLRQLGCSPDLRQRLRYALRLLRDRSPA
Protocol: (§2) The binding of fluorescein-labelled tracer peptides used for both assays was determined to see if there was a difference in affinity for their respective PBD. A titration curve for each tracer/PLK PBD complex was generated to determine Kd values for each and therefore compare the relative binding affinities.
(§3) The affinities of the peptides for PLK1 and PLK3 were measured by plotting the loss of polarization against increasing concentration of competitor peptide through use of an optimized assay and selectivity determination.

[11] = target: PLK1 PBD (Homo sapiens, UniProt P53350); experiment: Fluorescence polarization competitive binding assay, PLK1 PBD
Protocol: (§4) According to the assay, binding of a fluorescent tracer peptide to a protein increased polarization of the emitted fluorescence. […] The ability of test molecules to bind to the PBD was quantitated by a reduction in mP values that occurred as the tracer was displaced from the PBD, and plotted to calculate as an IC50 value.
as §3

[12] = system: PC3 cells; experiment: Cell cycle analysis of serum-starved PC3 cells; format: cell-based; conditions: 200 μM, 24 hours, PC3 synchronized by serum starvation; mock 19.9%
Protocol: To examine the cellular phenotype of PLK1 inhibition through the Polo-box domain, PC3 cells synchronized in G1 through serum starvation were treated with Compound No. 16. Cells were synchronized by serum starvation for 24 hours prior to treatment. Untreated cells were serum starved and then released into drug-free media for 24 hours (left panel) as control. Sample cells were serum starved and then treated with 200 μM Compound No. 16 for 24 hours (right panel).

[13] = target: T2, polo-box domain (PBD) of polo-like kinase 3 (PLK3) (UniProt Q9H4B4 335-646, limits assumed); experiment: fluorescence polarization titration of tracer with PLK3 PBD
T2 construct: domain: polo-box domain (PBD); also called PLK3 PBD; PBD of PLK3
T2 sequence (looked up): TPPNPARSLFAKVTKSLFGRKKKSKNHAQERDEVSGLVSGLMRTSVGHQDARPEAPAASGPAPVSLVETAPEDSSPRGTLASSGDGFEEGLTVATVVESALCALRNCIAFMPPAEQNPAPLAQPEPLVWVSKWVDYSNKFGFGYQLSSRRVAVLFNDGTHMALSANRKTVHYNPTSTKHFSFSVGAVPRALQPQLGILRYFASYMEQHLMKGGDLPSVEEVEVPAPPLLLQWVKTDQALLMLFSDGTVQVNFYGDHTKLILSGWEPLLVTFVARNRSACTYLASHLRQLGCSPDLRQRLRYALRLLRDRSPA
Protocol: as §4, with “IC₅₀” for “IC50”
as §2

[14] = target: T3, polo-box domain (PBD) of polo-like kinase 1 (PLK1) (UniProt P53350 367-603, limits assumed); experiment: fluorescence polarization competition, displacement of tracer peptide from PLK1 PBD
T3 construct: domain: polo-box domain (PBD); the background speaks of the four known human PLKs and the residue numbers (L491) fit human PLK1; also called PLK1 PBD; PBD of PLK1
Source text: as §4, with “IC₅₀” for “IC50”

[15] = target: polo-box domain (PBD) of polo-like kinase 1 (PLK1) (UniProt P53350); experiment: as above
[16] = target: polo-box domain (PBD) of polo-like kinase 1 (PLK1) (UniProt P53350); experiment: from FP IC50s; PLK1 PBD against PLK3 PBD
[17] = target: polo-like kinase 1 (PLK1), wild type, in cells (UniProt P53350 2-603, limits assumed); experiment: cell-based or functional assay
[18] = target: polo-box domain (PBD) of polo-like kinase 3 (PLK3) (UniProt Q9H4B4); experiment: fluorescence polarization competition, displacement of tracer peptide from PLK3 PBD
[19] = target: T3, polo-box domain (PBD) of polo-like …; experiment: fluorescence polarization competition on PLK1 PBD
[20] = target: T2, polo-box domain (PBD) of polo-like …; experiment: fluorescence polarization competition, displacement of tracer peptide from PLK3 PBD
Protocol: as §4, with “IC₅₀” for “IC50”
as §2, §3

T3 sequence (P53350 367-603 limits assumed): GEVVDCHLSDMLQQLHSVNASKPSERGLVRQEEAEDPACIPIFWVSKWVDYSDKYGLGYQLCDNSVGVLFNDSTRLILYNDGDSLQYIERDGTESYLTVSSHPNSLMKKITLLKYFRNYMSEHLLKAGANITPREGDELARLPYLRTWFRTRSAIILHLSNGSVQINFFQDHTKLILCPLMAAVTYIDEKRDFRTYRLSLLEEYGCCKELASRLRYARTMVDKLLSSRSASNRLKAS
Sequence of polo-box domain (PBD) of polo-like kinase 1 (PLK1) (UniProt P53350) (P53350 367-603 limits assumed): as above
Sequence of polo-like kinase 1 (PLK1), wild type, in cells (P53350 2-603 limits assumed): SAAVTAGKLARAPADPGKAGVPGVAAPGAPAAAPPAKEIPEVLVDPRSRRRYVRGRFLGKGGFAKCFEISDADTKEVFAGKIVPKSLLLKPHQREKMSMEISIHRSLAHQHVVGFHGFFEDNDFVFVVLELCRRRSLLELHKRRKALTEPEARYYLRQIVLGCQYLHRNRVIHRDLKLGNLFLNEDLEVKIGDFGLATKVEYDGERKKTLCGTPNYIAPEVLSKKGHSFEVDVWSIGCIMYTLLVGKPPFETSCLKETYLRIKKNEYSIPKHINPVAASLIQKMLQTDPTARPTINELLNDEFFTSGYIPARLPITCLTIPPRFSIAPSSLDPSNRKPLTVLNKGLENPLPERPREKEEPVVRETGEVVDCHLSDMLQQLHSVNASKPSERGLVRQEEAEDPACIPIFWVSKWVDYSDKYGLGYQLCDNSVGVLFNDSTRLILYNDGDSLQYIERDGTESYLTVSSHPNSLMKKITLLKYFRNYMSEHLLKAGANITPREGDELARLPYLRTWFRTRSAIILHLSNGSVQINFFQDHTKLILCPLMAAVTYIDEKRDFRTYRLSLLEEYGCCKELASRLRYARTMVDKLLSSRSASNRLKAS
Sequence of PLK1 PBD (P53350 367-603 limits assumed): as the sequence (P53350 367-603 limits assumed) above

Molecule: CCCCCCCCCc1ccc(C(=O)N[C@@H](CO)C(=O)N[C@H](C(=O)N[C@@H](C)C(=O)N[C@H](C(N)=O)[C@@H](C)CC)[C@@H](C)OP(=O)(O)O)cc1 [Compound 18] (X1-S[pT]AI-NH2; N-terminus assumed)
- BubR1 phosphorylation (anti-BubR1 immunoblot) [1]: inhibited the BubR1 phosphorylation
- mitotic block (anti-pHH3 immunoblot) [1]: blocked the cells at mitosis

Molecule: CCCCCCCCc1ccc(C(=O)N[C@@H](CO)C(=O)N[C@H](C(=O)N[C@@H](C)C(=O)N[C@H](C(=O)O)[C@@H](C)CC)[C@@H](C)OP(=O)(O)O)cc1 [Compound 15] ({Benzoyl(4-octyl)}-S[pT]AI-OH; C-terminus assumed)
- IC50 [2]: 79.5 µM
- sensitivity of RPE cells to FLIPs, in words [3]: sensitive
- IC50 [4]: 128 µM
- IC50 [5]: 55.7 µM

Molecule: GPLATS[pT]PNGL (SEQ ID NO: 8)
- Selectivity Index [6]: 2860
- fold reduction of affinity against the PLK3 consensus peptide (SEQ ID NO: 7) [7]: 2 fold
- fold reduction of affinity against the PLK3 consensus peptide (SEQ ID NO: 7) [8]: 3 fold

Molecule: CCCCCCCCc1ccc(C(=O)N[C@@H](CO)C(=O)N[C@H](C(=O)N2CCC[C@H]2C(=O)N[C@@H](CC(C)C)C(=O)O)[C@@H](C)OP(=O)(O)O)cc1 [Compound 16] ({Benzoyl(4-octyl)}-S[pT]PL-OH; C-terminus assumed)
- IC50 [9]: 158 µM
- fold reduction of PLK3 PBD binding relative to parent compound [10]: 3-4 fold
- IC50 ([10]; competition with fluorescent tracer peptide, read-out: PLK3 PBD FP IC50): 620 ± 72.5 µM
- IC50 ([3]; C67V mutant PLK1, read-out: growth inhibition, RPE cells expressing PLK1 C67V mutant): 86.8 µM
- sensitivity of RPE cells to FLIPs, in words [3]: sensitive
- fold reduction of PLK1 PBD binding relative to parent compound [11]: 3-4 fold
- accumulation in G2/M [12]: 53%

B1: PLK3 binding tracer (fluorescein-labelled SEQ ID NO: 7) (peptide)
peptide: GPLATS[pT]PKNG
modifications: also: fluorescein-labelled, site not given here
notes: also called PLK3 tracer; fluorescein-labelled tracer for the PLK3 PBD
- Kd [13]: 0.0272 µM

Molecule: {4‑(methylamino)benzoyl}-S[pT]PNGL (also: further groups not given here, see m14; also called Compound No. 8) [Compound #8, methylamino FLIP (R1 = NCH3)]
- IC50 [14]: 11.2 µM

Molecule: {Benzoyl(4-octyl)}-S[pT]PL [Compound No. 16, 4-octyl S[pT]PL (SEQ ID NO: 14)]
- IC50 [15]: 1.2 µM
- Selectivity Index [16]: 2580
- fold weaker affinity against Compound No. 15 [7]: 3 to 4 fold
- MTT IC50 [µM] A549 [17]: 160 µM
- MTT IC50 [µM] HeLa [17]: 142 µM
- MTT IC50 [µM] PC-3 [17]: 103 µM
- fold weaker affinity against Compound No. 15 [8]: 3 to 4 fold

B2: Compound No. 18, 4-nonyl S[pT]AI (SEQ ID NO: 13), R1 group on the C-terminal (peptide)
peptide: S[pT]AI
modifications: also: 4-nonyl R1 group on C-terminus, 'C-terminal amidated nonyl', terminal chemistry unclear
- IC50 [15]: 1.23 µM
- Selectivity Index [16]: 78
- IC50 [18]: 95.9 µM
- MTT IC50 [µM] HeLa [17]: 38.2 µM
- MTT IC50 [µM] PC-3 [17]: 27 µM

Molecule: {4‑(propylamino)benzoyl}-S[pT]PNGL (also: further groups not given here, see m14; also called Compound No. 9) [Compound #9, propylamino FLIP (R1 = NCH2CH2CH3)]
- IC50 [14]: 5.4 µM
- fold increase of activity against Compound #8 [19]: > 2 fold

Molecule: {Benzoyl(4-octyl)}-S[pT]AI [Compound No. 15, 4-octylbenzamide N-capped S[pT]AI (SEQ ID NO: 13)]
- IC50 [15]: 0.41 µM
- Selectivity Index [16]: 1860
- IC50 [18]: 153 µM
- MTT IC50 [µM] A549 [17]: 79.5 µM
- MTT IC50 [µM] HeLa [17]: 128 µM
- MTT IC50 [µM] PC-3 [17]: 55.7 µM

B3: Compound No. 17, 4-octyl S[pT]AI (SEQ ID NO: 13), R1 group on the C-terminal (peptide)
peptide: S[pT]AI
modifications: also: 4-octyl R1 group on C-terminus, 'C-terminal amidated octyl', terminal chemistry unclear
- IC50 [15]: 1.49 µM
- Selectivity Index [16]: 79
- IC50 [18]: 117 µM
- MTT IC50 [µM] HeLa [17]: 38.9 µM
- MTT IC50 [µM] PC-3 [17]: 41.5 µM

Molecule: LLCS[pT]PNGL (also called native Cdc25C peptide) [Cdc25C PBD substrate peptide LLCS[pT]PNGL (SEQ ID NO: 1)]
- IC50 [15]: 0.17 µM
- Selectivity Index [6]: > 17000
- IC50 [20]: > 600 µM
